“And” between values parts separate entries of the source, which are not always exact repeats. Equal entries are not always repeated.

The stoichiometry N is a count of units in the complex or per binding partner.

Data set [1] deals with borneol-type dehydrogenase SrBDH1 from Salvia rosmarinus (S. rosmarinus). In words: cryo-EM structure.
Data set [2] shares this target. In words: SEC-MALS. Background: SEC sorts molecules by how far they enter the pores of the column.
The data set “SEC-MALS” deals with the molecule itself. In words: SEC-MALS.

Turning to “borneol-type dehydrogenase SrBDH1 from Salvia rosmarinus (enzyme)”, the stoichiometry N in data set [1] and in data set [2] was 4 each time.

B1: borneol-type dehydrogenase SoBDH2 from Salvia officinalis (enzyme)
chain: MATGAANVESPQSLPLRLLGRVALVTGGSSGIGESIVLLFRKHGAKVCIADVQDNQGQRLCETLGGSSDIAFCHCDVTIEDDVKRAVDFTVDKFGTLDIMVNNAGVSGPPCPDIRDFELSAFDRVFDINVRGVFIGMKHAARIMIPAKKGSIISISSVASTMGGLGPHAYTGSKHAVLGLTKNVAAELGKHGIRVNCVSPYAVATSLALAHLPEAERTEDTWDDFRRFVADNANLQGVELTMEDVANAVVFLASDEARYVSGMNLMVDGGFTSTNHALQVFRP
As to B1, the “stoichiometry N” value in the data set “SEC-MALS” was 8 and 4.

Values taken from publication doi:10.1101/2021.06.15.448552 (bioRxiv, 2021).
